Experimental findings from patent publication US7422883 (INTER K, dated 2008) are described below.

For assay [1], the target named is T1, ERK2 (soluble ERK2 used in the ELISAs of Examples 10 to 12) (Mus musculus (Mouse), UniProt P63085 1-358, limits assumed). The assay can be described thus: ELISA, corrected for non-specific binding (FIG. 34). In general terms: An ELISA detects its analyte on a solid surface through an enzyme-linked reagent.
Assay [2] concerns the target T2, GST.ERK2 (non-phosphorylated ERK2 coupled to glutathione-S-transferase) (Mus musculus (Mouse), UniProt P63085 1-358).
T2 construct: not shown: glutathione-S-transferase encoded by pGEX vector; N-terminal position assu
The assay can be described thus: ELISA, biotinylated peptide on streptavidin plate, detection with SC1647. The method, then:
Peptide fragments corresponding to regions of the cytoplasmic tail domain of the β6 subunit were screened in an enzyme-linked immunosorbent assay (ELISA) for binding with ERK2. The 52 amino acid long β6 cytoplasmic tail is shown in FIG. 16 as are the amino acid sequences for the cytoplasmic domains of the β1 to β3 subunits. In particular, four synthetic peptides designated fragment 1 to fragment 4 were prepared and biotinylated at the N-terminal end of each, respectively (Auspep Pty Ltd, Melbourne Australia).
Overlapping biotinylated fragments 1 to 4 were coated onto streptavidin coated polystyrene plates (Pierce, Rockford Ill. USA, Cat No. 15125) and the ELISA performed substantially according to manufacturers instructions. […]
Binding of ERK to the peptides is detected using 100 µl anti-ERK1/2 mAb SC1647 (Santa Cruz) as the primary antibody at a dilution of 1:700 (isotype matched antibody IgG2b is used as a control). […] A […] of detection reagent (alkaline phosphatase detection kit-Biorad) is then introduced into each well after a final washing step and allowed to react for 15-30 minutes at room temperature in the dark before absorbance is measured at 405 nm. […]

In assay [3] the target is T2, GST.ERK2 (non-phosphorylated ERK2 …). The assay can be described thus: ELISA over a range of peptide concentrations (FIG. 20).
For assay [4], the target named is T3, ERK2 cleaved from GST-ERK2 by thrombin (Mus musculus (Mouse), UniProt P63085 1-358, limits assumed).
T3 construct: also called ERK2 (thrombin cleaved)
T3 sequence (P63085 whole entry): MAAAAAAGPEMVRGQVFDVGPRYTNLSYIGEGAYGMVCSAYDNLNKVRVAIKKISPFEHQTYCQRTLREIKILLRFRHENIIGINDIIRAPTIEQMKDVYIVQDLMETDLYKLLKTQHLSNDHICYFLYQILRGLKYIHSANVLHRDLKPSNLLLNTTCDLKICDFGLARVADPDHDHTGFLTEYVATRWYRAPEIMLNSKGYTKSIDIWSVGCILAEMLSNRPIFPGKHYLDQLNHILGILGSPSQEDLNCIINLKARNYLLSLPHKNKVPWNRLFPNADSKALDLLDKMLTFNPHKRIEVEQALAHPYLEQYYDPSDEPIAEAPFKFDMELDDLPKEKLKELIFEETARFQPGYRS
The assay can be described thus: ELISA with thrombin-cleaved ERK2 (FIG. 23).

For assay [5], the target named is T1, ERK2 (soluble ERK2 used in the ELISAs …). The assay can be described thus: ELISA of ERK2 on synthetic peptide.

No end group written: not given here. *: point of attachment. Biotin = O=C1N[C@H]2[C@H](CS[C@H]2CCCCC(=O)*)N1

T1 sequence (P63085 whole entry): as above
T2 sequence (P63085 whole entry): as above

For the molecule RARAKWDTANNPLYK (also called β3 peptide) [β3 cytoplasmic domain peptide RARAKWDTANNPLYK], the binding result in assay [1] was “binds”. In the case of Biotin-RSKAKWQTGTNPLYRGSTST (also called peptide fragment 2) [Fragment 2 of the β6 cytoplasmic tail], in assay [2], the binding result is “binds”.

Take RSKAKWQTGT (also: biotinylated, position not given here) [10 mer test peptide RSKAKWQTGT]: the binding result in assay [3] is “binds”. Take RSKAKWQTGTNPLYR (also: biotinylated, position not given here, also called 15-mer β6 peptide) [15 mer test peptide (seq. 4) RSKAKWQTGTNPLYR]: the binding result in assay [1], in assay [3] and in assay [4] was “binds” throughout. On to KFEKEKMNAKWDTGENPIYK (also called β1 peptide) [β1 cytoplasmic domain peptide KFEKEKMNAKWDTGENPIYK], for which the binding result in assay [5] was “no binding (tested: ERK2 (1 µm) by the legend of FIG. 35C)”. Regarding RSKAKNPLYR (4 with WQTGT omitted) [10 mer peptide 10(4) RSKAKNPLYR], the binding result in assay [4] is “binds”. Take RSRARYEMASNPLYR (also called β5 peptide; β5 fragment) [β5 cytoplasmic domain peptide RSRARYEMASNPLYR]: the binding result in assay [1] was “binds”.
